According to patent US20080306007A1, “AGENTS FOR PROPHYLAXIS OR TREATMENT OF NEUROLOGICAL RELATED DISEASES AND CONDITIONS” (Newcastle Innovation Limited, priority 2007, published 2008):

What was measured:
[1] = tested on: cerebellar granule neurons (CGNs); assay: FM4-64 SV turnover in transfected cerebellar granule neurons (Example 1); assay type: cell-based, rat; conditions: two sequential KCl stimuli
Description: Primary cerebellar granule neuron (CGN) cultures were prepared from 7-day old Sprague-Dawley rat pups as previously described (Tan et al. 2003). In brief, neurons were plated on poly-D-lysine coated glass coverslips at a density of 1.5×10^5 cells/coverslip. Neurons were cultured in MEM containing Earle's salts plus 10% (v/v) foetal calf serum, 25 mM KCl, 30 mM glucose, 2 mM glutamine, 100 U/ml penicillin and 100 μg/ml streptomycin at 37° C., in a humidified atmosphere of 5% CO2. The culture medium was supplemented with 10 μM cytosine arabinoside after 24 hours. Transfections were carried out using an established calcium phosphate precipitation protocol. CGNs were transiently transfected with 1.5 μg of DNA between 7-10 days in vitro and were used 48 h later.
The effect of overexpression of dynamin I-GFP constructs on SV recycling in CGNs was monitored using the styryl dye FM4-64 (Molecular Probes). The extent of FM4-64 loading was quantified by normalising the fluorescence value at the start of stimulation to an arbitrary value and monitoring the total decrease on unloading with a dual KCl stimulus. The rate of FM4-64 unloading (as a measure of SV exocytosis) was estimated by determining the time taken for individual nerve terminals to lose 50% of their dye content on stimulation of unloading. These values were normalised to untransfected nerve terminals within the same field of view. SV exocytosis and recycling was also monitored using the pH-sensitive VAMP-GFP (synaptopHluorin). Dynamin constructs linked to mCerulean rather than to GFP were used in this part of the study. CGNs were co-transfected with synaptopHluorin and either DynI^WT-mCerulean, DynI^dmA-mCerulean or Dyn^dmE-mCerulean and stimulated with 50 mM KCl for 20 sec. The evoked synaptopHluorin response was recorded at 500 nm excitation and 510-550 nm emission (mCerulean fluorescence was not detectable at this wavelength). Co-expression of dynamin I was confirmed by recording at 430 nm excitation. Responses were analysed by calculating the increased fluorescence of synaptopHluorin over baseline for individual nerve terminals and then normalising the maxima and minima to 1 and 0.
To show the key role of the phosphorylation sites by independent methods in cultured neurons their role in SV turnover in nerve terminals of CGNs transfected with dynamin I-GFP was examined. SV turnover in neurons transfected with DynI^WT-GFP was indistinguishable from that in untransfected neurons (FIG. 6a-c). […] The extent of HM4-64 accumulation and thus SV turnover, was quantified from the change in fluorescence (AF) by unloading the CGN terminals with two sequential KCl stimuli (S1 and S2) (FIG. 6j). The total SV recycling pool was reduced by approximately 70% in CGNs transfected with DynI^dmA-GFP (28±3.5% of control) and 40% with DynI^dmE-GFP (64.4±6.2% of control) (FIG. 6k). However, transfection of DynI^WT-GFP had no detectable effect (100.1±5.2% of control, FIG. 6k).

[2] = tested on: cerebellar granule neurons (CGNs); assay: FM4-64 synaptic vesicle recycling in transfected CGNs (Example 2); assay type: cell-based, rat; conditions: single 50 mM KCl stimulus
Description: The effect of overexpression of dynamin constructs on synaptic vesicle recycling in CGNs was monitored using the styryl dye FM4-64. Neurons were removed from the culture medium and left to repolarise for 10 min in incubation medium (170 mM NaCl, 3.5 mM KCl, 0.4 mM KH2PO4, 20 mM TES (N-tris[hydroxy-methyl]-methyl-2-aminoethane-sulphonic acid), 5 mM NaHCO3, 5 mM glucose, 1.2 mM Na2SO4, 1.2 mM MgCl2, 1.3 mM CaCl2, pH 7.4). Neurons were then loaded with FM4-64 by evoking SV recycling using KCl stimulation medium (incubation medium supplemented with 50 mM KCl and 10 μM FM4-64, 50 mM NaCl being removed to maintain osmolarity) for 2 min. Cells were washed with incubation medium and mounted on an epifluorescence microscope (Olympus IX81). After 10 min, FM4-64 was unloaded from the cells by exposure to a 30 s pulse of stimulation medium. Transfected neurons were visualised using a Olympus Plan-Apochromat x40 objective at 480 nm excitation and a band-pass emission filter of 515-555 nm. FM4-64 unloading was monitored at 555 nm excitation and a long pass emission filter of 600 nm. The decrease in fluorescence intensity of FM4-64 loaded nerve terminals on stimulation was visualised using a Hammamatsu Orca-ERG CCD digital camera (Hammamatsu City, Japan) and Metamorph 6.3 imaging software (Molecular Devices, Downingtown, Pa.). The extent of FM4-64 unloading was quantified by normalising the fluorescence value at the start of stimulation to an arbitrary value and monitoring the total decrease in fluorescence on unloading with the KCl stimulus. The kinetics of FM4-64 unloading were estimated by normalising the start and completion of unloading to 1 and 0 respectively. Other methods employed in this study are as described in Example 1.
Synaptic vesicle turnover in neurons transfected with DynI-WT-GFP was indistinguishable from that in untransfected neurons. […] The extent of synaptic vesicle turnover was quantified by unloading the terminals with a single 50 mM KCl stimulus, which is considered mild. The total synaptic vesicle recycling pool was unaffected in CGNs transfected with DynI-WT-GFP, while after transfection with DynI-2B-GFP it was reduced. The inhibition can be solely accounted for by an effect on SV endocytosis, since there was no effect on the kinetics of dye unloading. Next, the effects of DynI-PB2-GFP and DynI-3B-GFP on SVE were examined. These two mutants were chosen since they specifically fail to bind syndapin I and endophilin I, respectively, providing a clear distinction between them.
Again, there was no effect on exocytosis, indicating an inhibition of SVE.

Row | Molecule | total SV recycling pool (FM4-64) [1] | total synaptic recycling pool (FM4-64) [2]
1 | DynI^WT-GFP: Transfected GFP-tagged wild-type dynamin I (protein, UniProt Q05193 1-864, looked up, GFP tag, Transfected GFP-tagged wild-type dynamin I) Dynamin-1: MGNRGMEDLIPLVNRLQDAFSAIGQNADLDLPQIAVVGGQSAGKSSVLENFVGRDFLPRGSGIVTRRPLVLQLVNATTEYAEFLHCKGKKFTDFEEVRLEIEAETDRVTGTNKGISPVPINLRVYSPHVLNLTLVDLPGMTKVPVGDQPPDIEFQIRDMLMQFVTKENCLILAVSPANSDLANSDALKVAKEVDPQGQRTIGVITKLDLMDEGTDARDVLENKLLPLRRGYIGVVNRSQKDIDGKKDITAALAAERKFFLSHPSYRHLADRMGTPYLQKVLNQQLTNHIRDTLPGLRNKLQSQLLSIEKEVEEYKNFRPDDPARKTKALLQMVQQFAVDFEKRIEGSGDQIDTYELSGGARINRIFHERFPFELVKMEFDEKELRREISYAIKNIHGIRTGLFTPDMAFETIVKKQVKKIREPCLKCVDMVISELISTVRQCTKKLQQYPRLREEMERIVTTHIREREGRTKEQVMLLIDIELAYMNTNHEDFIGFANAQQRSNQMNKKKTSGNQDEILVIRKGWLTINNIGIMKGGSKEYWFVLTAENLSWYKDDEEKEKKYMLSVDNLKLRDVEKGFMSSKHIFALFNTEQRNVYKDYRQLELACETQEEVDSWKASFLRAGVYPERVGDKEKASETEENGSDSFMHSMDPQLERQVETIRNLVDSYMAIVNKTVRDLMPKTIMHLMINNTKEFIFSELLANLYSCGDQNTLMEESAEQAQRRDEMLRMYHALKEALSIIGDINTTTVSTPMPPPVDDSWLQVQSVPAGRRSPTSSPTPQRRAPAVPPARPGSRGPAPGPPPAGSALGGAPPVPSRPGASPDPFGPPPQVPSRPNRAPPGVPSRSGQASPSRPESPRPPFDL | 100.1±5.2 % of control | 94.0±5.1 % of control
2 | DynI-3B-GFP: GFP-tagged dynamin I point mutant P793A (site 3); fails to bind endophilin I (protein, left off: large carriers) MGNRGMEDLIPLVNRLQDAFSAIGQNADLDLPQIAVVGGQSAGKSSVLENFVGRDFLPRGSGIVTRRPLVLQLVNSTTEYAEFLHCKGKKFTDFEEVRLEIEAETDRVTGTNKGISPVPINLRVYSPHVLNLTLVDLPGMTKVPVGDQPPDIEFQIRDMLMQFVTKENCLILAVSPANSDLANSDALKIAKEVDPQGQRTIGVITKLDLMDEGTDARDVLENKLLPLRRGYIGVVNRSQKDIDGKKDITAALAAERKFFLSHPSYRHLADRMGTPYLQKVLNQQLTNHIRDTLPGLRNKLQSQLLSIEKEVDEYKNFRPDDPARKTKALLQMVQQFAVDFEKRIEGSGDQIDTYELSGGARINRIFHERFPFELVKMEFDEKELRREISYAIKNIHGIRTGLFTPDLAFEATVKKQVQKLKEPSIKCVDMVVSELTSTIRKCSEKLQQYPRLREEMERIVTTHIREREGRTKEQVMLLIDIELAYMNTNHEDFIGFANAQQRSNQMNKKKTSGNQDEILVIRKGWLTINNIGIMKGGSKEYWFVLTAENLSWYKDDEEKEKKYMLSVDNLKLRDVEKGFMSSKHIFALFNTEQRNVYKDYRQLELACETQEEVDSWKASFLRAGVYPERVGDKEKASETEENGSDSFMHSMDPQLERQVETIRNLVDSYMAIVNKTVRDLMPKTIMHLMINNTKEFIFSELLANLYSCGDQNTLMEESAEQAQRRDEMLRMYHALKEALSIIGDINTTTVSTPMPPPVDDSWLQVQSVPAGRRSPTSSPTPQRRAPAVPPARAGSRGPAPGPPPAGSALGGAPPVPSRPGASPDPFGPPPQVPSRPNRAPPGVPSRSGQASPSRPESPRPPFDL | – | 56.8±4.4 % of control
3 | DynI-9A-GFP: GFP-tagged dynamin I R838E (site 9) mutant; abolishes amphiphysin I binding (protein, UniProt Q05193 1-864, looked up, variant R838E, GFP tag) Dynamin-1: MGNRGMEDLIPLVNRLQDAFSAIGQNADLDLPQIAVVGGQSAGKSSVLENFVGRDFLPRGSGIVTRRPLVLQLVNATTEYAEFLHCKGKKFTDFEEVRLEIEAETDRVTGTNKGISPVPINLRVYSPHVLNLTLVDLPGMTKVPVGDQPPDIEFQIRDMLMQFVTKENCLILAVSPANSDLANSDALKVAKEVDPQGQRTIGVITKLDLMDEGTDARDVLENKLLPLRRGYIGVVNRSQKDIDGKKDITAALAAERKFFLSHPSYRHLADRMGTPYLQKVLNQQLTNHIRDTLPGLRNKLQSQLLSIEKEVEEYKNFRPDDPARKTKALLQMVQQFAVDFEKRIEGSGDQIDTYELSGGARINRIFHERFPFELVKMEFDEKELRREISYAIKNIHGIRTGLFTPDMAFETIVKKQVKKIREPCLKCVDMVISELISTVRQCTKKLQQYPRLREEMERIVTTHIREREGRTKEQVMLLIDIELAYMNTNHEDFIGFANAQQRSNQMNKKKTSGNQDEILVIRKGWLTINNIGIMKGGSKEYWFVLTAENLSWYKDDEEKEKKYMLSVDNLKLRDVEKGFMSSKHIFALFNTEQRNVYKDYRQLELACETQEEVDSWKASFLRAGVYPERVGDKEKASETEENGSDSFMHSMDPQLERQVETIRNLVDSYMAIVNKTVRDLMPKTIMHLMINNTKEFIFSELLANLYSCGDQNTLMEESAEQAQRRDEMLRMYHALKEALSIIGDINTTTVSTPMPPPVDDSWLQVQSVPAGRRSPTSSPTPQRRAPAVPPARPGSRGPAPGPPPAGSALGGAPPVPSRPGASPDPFGPPPQVPSRPNEAPPGVPSRSGQASPSRPESPRPPFDL | – | 71.9±2.7 % of control
